Article PMC9482650, “Quantitative fragmentomics allow affinity mapping of interactomes” (Nature Communications, 2022)

T1: APBA2_2, Q99767
T1 sequence (Q99767 654-744, limits assumed, looked up): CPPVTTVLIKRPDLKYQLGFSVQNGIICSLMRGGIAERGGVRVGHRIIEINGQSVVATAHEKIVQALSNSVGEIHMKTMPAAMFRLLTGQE

T2: GRIP1_5, Q9Y3R0
T2 sequence (Q9Y3R0 568-668, limits assumed, looked up): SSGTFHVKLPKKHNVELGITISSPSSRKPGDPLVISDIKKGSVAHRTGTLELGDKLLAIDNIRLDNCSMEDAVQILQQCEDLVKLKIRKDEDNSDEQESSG

T3: PDZRN3_1, Q9UPQ7
T3 sequence (Q9UPQ7 244-349, limits assumed, looked up): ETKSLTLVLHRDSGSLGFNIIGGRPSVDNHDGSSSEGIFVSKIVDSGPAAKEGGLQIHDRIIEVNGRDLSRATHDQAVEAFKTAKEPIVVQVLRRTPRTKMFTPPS

T4: GRIP1_3, Q9Y3R0
T4 sequence (Q9Y3R0 247-346, limits assumed, looked up): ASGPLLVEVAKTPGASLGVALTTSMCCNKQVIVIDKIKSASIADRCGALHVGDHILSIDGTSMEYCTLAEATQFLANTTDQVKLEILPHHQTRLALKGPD

T5: TX1BP3, O14907
T5 sequence (O14907 10-122, limits assumed, looked up): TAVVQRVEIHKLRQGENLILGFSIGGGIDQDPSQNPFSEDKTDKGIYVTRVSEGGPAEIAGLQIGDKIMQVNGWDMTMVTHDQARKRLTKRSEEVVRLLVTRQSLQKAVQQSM

T6: RADIL, Q96JH8
T6 sequence (Q96JH8 971-1071, limits assumed, looked up): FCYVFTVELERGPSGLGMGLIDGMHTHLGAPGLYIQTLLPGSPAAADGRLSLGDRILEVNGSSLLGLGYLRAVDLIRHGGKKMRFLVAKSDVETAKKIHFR

T7: SNTB1, Q13884
T7 sequence (Q13884 107-205, limits assumed, looked up): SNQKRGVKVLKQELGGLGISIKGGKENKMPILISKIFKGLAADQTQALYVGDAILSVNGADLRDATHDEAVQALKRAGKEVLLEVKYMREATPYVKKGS


What was measured:
Assay in all cases: holdup assay
Set-up in all cases: key: below the threshold = too weak to quantify, mostly under pKd 3.1 to 4
Details in all cases: plain residues with an end cap or a label only (N-terminal biotin on a linker: ado-ado)
[1] = target: LNX1_3, Q8TBB1
[2] = target: SCRIB_3, Q14160
[3] = target: PICK1, Q9NRD5
[4] = target: FRMPD3, Q5JV73
[5] = target: SCRIB_2, Q14160
[6] = target: Inadl_6, Q8NI35
[7] = target: SNX27, Q96L92
[8] = target: T1, APBA2_2, Q99767
[9] = target: PDZRN4_1, Q6ZMN7
[10] = target: MAGI2_5, Q86UL8
[11] = target: MAGI1_1, Q96QZ7
[12] = target: GRIP2_4, Q9C0E4
[13] = target: T2, GRIP1_5, Q9Y3R0
[14] = target: T3, PDZRN3_1, Q9UPQ7
[15] = target: LNX1_2, Q8TBB1
[16] = target: FRMPD4, Q14CM0
[17] = target: T4, GRIP1_3, Q9Y3R0
[18] = target: LNX1_1, Q8TBB1
[19] = target: DLG4_3, P78352
[20] = target: MAGI1_2, Q96QZ7
[21] = target: CASK, O14936
[22] = target: GRIP2_7, Q9C0E4
[23] = target: T5, TX1BP3, O14907
[24] = target: T6, RADIL, Q96JH8
[25] = target: GORASP1, Q9BQQ3
[26] = target: DLG4_2, P78352
[27] = target: Inadl_1, Q8NI35
[28] = target: T7, SNTB1, Q13884
[29] = target: IL16_4, Q14005
[30] = target: MAGI2_6, Q86UL8
MAGI2_6, Q86UL8, sequence (Q86UL8 1141-1229): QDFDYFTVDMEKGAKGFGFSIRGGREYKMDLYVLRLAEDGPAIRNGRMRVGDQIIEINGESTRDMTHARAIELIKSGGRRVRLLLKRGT

LNX1_3, Q8TBB1, sequence (Q8TBB1 500-596): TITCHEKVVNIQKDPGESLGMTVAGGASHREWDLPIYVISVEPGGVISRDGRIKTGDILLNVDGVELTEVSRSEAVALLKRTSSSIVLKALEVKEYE
GRIP2_7, Q9C0E4, sequence (Q9C0E4 934-1023): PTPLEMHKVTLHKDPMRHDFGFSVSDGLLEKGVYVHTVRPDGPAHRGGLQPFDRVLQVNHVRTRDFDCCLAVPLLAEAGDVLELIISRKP
SCRIB_2, Q14160, sequence (Q14160 857-960): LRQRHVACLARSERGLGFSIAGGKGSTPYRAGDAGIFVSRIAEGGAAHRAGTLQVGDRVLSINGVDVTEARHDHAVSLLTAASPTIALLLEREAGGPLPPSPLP
PDZRN4_1, Q6ZMN7, sequence (Q6ZMN7 213-318): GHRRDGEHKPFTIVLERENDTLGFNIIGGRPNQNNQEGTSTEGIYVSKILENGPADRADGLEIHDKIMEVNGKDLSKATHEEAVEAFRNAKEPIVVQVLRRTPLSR
LNX1_2, Q8TBB1, sequence (Q8TBB1 371-470): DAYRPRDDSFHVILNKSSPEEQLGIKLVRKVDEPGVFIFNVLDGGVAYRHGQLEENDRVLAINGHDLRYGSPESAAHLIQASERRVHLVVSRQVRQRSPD
GORASP1, Q9BQQ3, sequence (Q9BQQ3 1-208): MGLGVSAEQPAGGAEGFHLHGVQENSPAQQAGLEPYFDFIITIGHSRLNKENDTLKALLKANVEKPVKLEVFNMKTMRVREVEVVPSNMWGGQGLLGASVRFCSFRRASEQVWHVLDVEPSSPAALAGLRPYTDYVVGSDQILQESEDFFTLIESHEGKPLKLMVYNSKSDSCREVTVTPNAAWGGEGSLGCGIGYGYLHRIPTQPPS
GRIP2_4, Q9C0E4, sequence (Q9C0E4 446-548): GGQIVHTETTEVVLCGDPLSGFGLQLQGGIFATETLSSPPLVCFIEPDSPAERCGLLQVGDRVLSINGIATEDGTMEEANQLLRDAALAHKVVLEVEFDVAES
IL16_4, Q14005, sequence (Q14005 1229-1329): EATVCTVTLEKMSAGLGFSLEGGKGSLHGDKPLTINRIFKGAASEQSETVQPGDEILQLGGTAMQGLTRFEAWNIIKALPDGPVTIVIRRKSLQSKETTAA
MAGI1_1, Q96QZ7, sequence (Q96QZ7 1-106): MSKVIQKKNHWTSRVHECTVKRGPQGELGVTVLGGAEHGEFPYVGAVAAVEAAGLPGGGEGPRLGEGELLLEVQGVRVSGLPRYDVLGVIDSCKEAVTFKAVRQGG
PICK1, Q9NRD5, sequence (Q9NRD5 17-115): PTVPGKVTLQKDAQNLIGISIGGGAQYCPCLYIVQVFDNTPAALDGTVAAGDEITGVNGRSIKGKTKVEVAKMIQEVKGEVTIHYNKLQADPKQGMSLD
FRMPD3, Q5JV73, sequence (Q5JV73 12-100): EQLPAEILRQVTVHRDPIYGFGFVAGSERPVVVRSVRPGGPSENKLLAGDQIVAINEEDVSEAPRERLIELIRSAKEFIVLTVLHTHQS
SCRIB_3, Q14160, sequence (Q14160 999-1103): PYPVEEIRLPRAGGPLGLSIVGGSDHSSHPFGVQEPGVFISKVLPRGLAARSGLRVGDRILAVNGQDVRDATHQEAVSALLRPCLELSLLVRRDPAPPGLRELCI
DLG4_2, P78352, sequence (P78352 155-259): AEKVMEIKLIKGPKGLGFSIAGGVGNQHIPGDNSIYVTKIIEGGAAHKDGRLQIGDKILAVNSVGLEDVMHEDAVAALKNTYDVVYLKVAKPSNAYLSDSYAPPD
FRMPD4, Q14CM0, sequence (Q14CM0 67-160): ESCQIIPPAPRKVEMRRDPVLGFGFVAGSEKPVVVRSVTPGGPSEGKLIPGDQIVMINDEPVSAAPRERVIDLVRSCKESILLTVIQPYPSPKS
MAGI1_2, Q96QZ7, sequence (Q96QZ7 456-580): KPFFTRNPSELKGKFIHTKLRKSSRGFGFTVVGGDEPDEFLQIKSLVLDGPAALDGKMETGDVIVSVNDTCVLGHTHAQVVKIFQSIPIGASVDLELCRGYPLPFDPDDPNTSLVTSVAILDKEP
DLG4_3, P78352, sequence (P78352 306-403): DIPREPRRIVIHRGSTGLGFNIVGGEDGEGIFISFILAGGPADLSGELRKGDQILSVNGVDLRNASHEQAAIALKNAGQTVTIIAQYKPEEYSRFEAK
LNX1_1, Q8TBB1, sequence (Q8TBB1 261-371): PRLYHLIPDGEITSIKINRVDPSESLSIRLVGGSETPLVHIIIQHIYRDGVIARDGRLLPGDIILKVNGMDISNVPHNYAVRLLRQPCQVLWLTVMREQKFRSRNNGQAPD
MAGI2_5, Q86UL8, sequence (Q86UL8 915-1017): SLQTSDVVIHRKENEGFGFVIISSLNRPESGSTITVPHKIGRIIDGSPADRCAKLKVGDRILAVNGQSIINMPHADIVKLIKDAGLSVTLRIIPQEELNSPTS
CASK, O14936, sequence (O14936 487-570): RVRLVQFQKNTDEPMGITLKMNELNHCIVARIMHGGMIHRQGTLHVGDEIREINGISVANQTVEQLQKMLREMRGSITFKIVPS
Inadl_6, Q8NI35, sequence (Q8NI35 1058-1167): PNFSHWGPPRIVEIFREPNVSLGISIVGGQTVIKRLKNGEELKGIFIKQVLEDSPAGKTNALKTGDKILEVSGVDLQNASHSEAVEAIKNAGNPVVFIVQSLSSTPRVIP
Inadl_1, Q8NI35, sequence (Q8NI35 113-229): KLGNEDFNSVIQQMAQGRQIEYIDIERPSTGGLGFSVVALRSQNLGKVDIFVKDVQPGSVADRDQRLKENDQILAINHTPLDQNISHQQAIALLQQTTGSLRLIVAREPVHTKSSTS

Binder | pKd [1] | pKd [2] | pKd [3] | pKd [4] | pKd [5] | pKd [6] | pKd [7] | pKd [8] | pKd [9] | pKd [10] | pKd [11] | pKd [12] | pKd [13] | pKd [14] | pKd [15] | pKd [16] | pKd [17] | pKd [18] | pKd [19] | pKd [20] | also measured
LPHPHSTTRV [NLGN2, Q8NFZ4] | below the threshold | below the threshold | 4.24 | below the threshold | below the threshold | below the threshold | 5.41 | below the threshold | below the threshold | below the threshold | below the threshold | below the threshold | below the threshold | below the threshold | below the threshold | below the threshold | below the threshold | 3.64 | 3.82 | 4.13 | pKd [21]: below the threshold; pKd [22]: below the threshold; pKd [23]: 3.79; pKd [24]: 3.87; pKd [25]: 3.58; pKd [26]: 3.86; pKd [27]: below the threshold; pKd [28]: 4.22; pKd [29]: 3.7; pKd [30]: below the threshold
PRISRSQSEL [CCDC134, Q9H6E4] | below the threshold | 4.06 | 4.14 | below the threshold | below the threshold | below the threshold | below the threshold | below the threshold | below the threshold | below the threshold | below the threshold | below the threshold | below the threshold | 3.65 | below the threshold | below the threshold | below the threshold | 3.67 | below the threshold | 4.13 | pKd [21]: below the threshold; pKd [22]: below the threshold; pKd [23]: 3.52; pKd [24]: below the threshold; pKd [25]: below the threshold; pKd [26]: below the threshold; pKd [27]: below the threshold; pKd [28]: below the threshold; pKd [29]: 3.8; pKd [30]: below the threshold
QPCFNKLFPL [LPXN, O60711] | below the threshold | below the threshold | below the threshold | below the threshold | below the threshold | below the threshold | 3.75 | below the threshold | below the threshold | below the threshold | 3.74 | below the threshold | below the threshold | below the threshold | below the threshold | 4.64 | below the threshold | below the threshold | below the threshold | below the threshold | pKd [21]: below the threshold; pKd [22]: 3.69; pKd [23]: below the threshold; pKd [24]: below the threshold; pKd [25]: 3.68; pKd [26]: below the threshold; pKd [27]: below the threshold; pKd [28]: below the threshold; pKd [29]: below the threshold; pKd [30]: below the threshold
